Assay results as given in patent US20220048996A1 (F STAR BETA, published 2022).

Tests used:
[1] = molecular target: T1, cynomolgus OX40 expressed on DO11.10 cells (DO11.10-cOX40) (cynomolgus, UniProt P43489 29-277 (human entry)); assay: flow cytometry on DO11.10 cells expressing the target, mean ± SD of three experiments
T1 chain: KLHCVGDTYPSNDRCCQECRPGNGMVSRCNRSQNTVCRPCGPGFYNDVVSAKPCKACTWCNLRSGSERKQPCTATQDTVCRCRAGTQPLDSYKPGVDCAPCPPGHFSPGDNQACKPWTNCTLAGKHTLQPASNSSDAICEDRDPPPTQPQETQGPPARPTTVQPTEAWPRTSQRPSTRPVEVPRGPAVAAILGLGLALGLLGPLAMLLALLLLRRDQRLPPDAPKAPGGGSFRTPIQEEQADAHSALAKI
Protocol: (§1) 50 μl of the antibody dilutions were added to the wells containing cells (final volume 100 μl) and incubated at 4° C. for 1 hour. […] The plates were washed and resuspended in 100 μl of PBS containing DAPI (Biotium, cat no 40043) at 1 μg/ml. The plates were analysed using a Canto II flow cytometer (BD Bioscience) and the data analysed using FlowJo. Dead cells were identified by their higher fluorescence on the UV (405 nm/450/50) channel and excluded from analysis. […] The GMFI data was fit using log (agonist) vs response (three parameters) in Graph Pad Prism Software to generate EC₅₀ values.
(§2) However, in this experiment, instead of using HEK cells to analyse the non-specific binding, non-transduced DO11.10 cells were used. […] The experiment was repeated three times to increase the reliability of the EC₅₀ values calculated.

[2] = molecular target: T2, cynomolgus CD137 expressed on DO11.10 cells (DO11.10-cCD137) (cynomolgus monkey, UniProt Q07011 24-255 (human entry)); assay: as above
T2 chain: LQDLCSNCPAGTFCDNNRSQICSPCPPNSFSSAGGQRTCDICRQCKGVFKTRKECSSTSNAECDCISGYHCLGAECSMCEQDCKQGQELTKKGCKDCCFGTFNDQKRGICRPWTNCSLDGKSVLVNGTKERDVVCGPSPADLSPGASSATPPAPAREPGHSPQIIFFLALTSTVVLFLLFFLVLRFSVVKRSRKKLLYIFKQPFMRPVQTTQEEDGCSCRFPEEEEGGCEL
Protocol: as §1, §2

[3] = molecular target: T3, human CD137 expressed on DO11.10 cells (DO11.10-hCD137) (human, UniProt Q07011 24-255); assay: as above
T3 construct: also called CD137 on human T cells
Protocol: as §1, §2
Target sequence in this assay (Q07011 24-255): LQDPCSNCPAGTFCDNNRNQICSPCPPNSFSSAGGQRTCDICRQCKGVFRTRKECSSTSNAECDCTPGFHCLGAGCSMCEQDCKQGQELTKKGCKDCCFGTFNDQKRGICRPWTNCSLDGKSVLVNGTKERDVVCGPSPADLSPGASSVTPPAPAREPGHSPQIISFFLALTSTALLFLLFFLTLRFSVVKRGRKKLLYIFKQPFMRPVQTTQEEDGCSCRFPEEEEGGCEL

[4] = molecular target: T4, human OX40 expressed on DO11.10 cells (DO11.10-hOX40) (human, UniProt P43489 29-277); assay: as above
T4 construct: Also used here for OX40 on primary human T cells in the functional rows; also called human OX40 receptor; OX40 on human T cells
T4 sequence: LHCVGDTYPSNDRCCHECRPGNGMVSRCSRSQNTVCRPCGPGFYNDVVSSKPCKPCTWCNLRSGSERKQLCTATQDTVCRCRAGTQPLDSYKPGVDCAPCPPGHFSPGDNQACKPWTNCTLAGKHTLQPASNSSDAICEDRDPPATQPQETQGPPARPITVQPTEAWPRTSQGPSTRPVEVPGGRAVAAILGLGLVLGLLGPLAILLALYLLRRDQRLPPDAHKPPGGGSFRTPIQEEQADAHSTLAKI
Protocol: as §1, §2

[5] = molecular target: T3, human CD137 expressed on DO11.10 cells …; assay: flow cytometry on DO11.10 cells expressing the target
[6] = molecular target: T4, human OX40 expressed on DO11.10 cells …; assay: as above
cOX40-mFc = molecular target: T5, cOX40-mFc (cynomolgus); assay: SPR, antibody captured via anti-human Fab, dimeric antigen flowed, 1:1 fit
T5 construct: Dimeric; also called cyno OX40-mFc
T5 chain: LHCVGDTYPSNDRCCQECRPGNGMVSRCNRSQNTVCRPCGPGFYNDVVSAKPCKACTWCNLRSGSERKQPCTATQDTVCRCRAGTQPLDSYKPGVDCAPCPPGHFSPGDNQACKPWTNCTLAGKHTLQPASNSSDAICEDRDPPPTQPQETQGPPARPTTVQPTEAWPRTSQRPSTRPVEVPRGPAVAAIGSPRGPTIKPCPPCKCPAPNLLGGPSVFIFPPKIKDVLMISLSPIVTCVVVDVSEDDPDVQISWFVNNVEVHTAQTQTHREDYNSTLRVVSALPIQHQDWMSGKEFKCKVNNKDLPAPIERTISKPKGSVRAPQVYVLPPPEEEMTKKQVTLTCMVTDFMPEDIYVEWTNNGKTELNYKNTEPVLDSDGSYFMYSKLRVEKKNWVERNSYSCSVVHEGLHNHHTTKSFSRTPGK
Protocol: (§3) For OX40 affinity determination a Biacore CM5 chip was coated with anti-human Fab using a Human Fab Capture Kit (GE Healthcare 28958325) according to manufacturer's conditions, to a surface density of approximately 8000 RU. […] The association time was 2 min and the dissociation time was 8 min. Running buffer was HBS-EP. Flow cells were regenerated by injecting glycine-HCl at pH 2.1 at a flow rate of 30 μl/min for 30 seconds.
(§4) The binding kinetics were fit with a 1:1 Langmuir model to generate binding association (kₐ) and dissociation (kd) rates. Equilibrium binding constants (KD) were calculated by dividing the dissociation rate by the association rate for each sample. Data analysis was performed with BiaEvaluation software version 3.2.

hOX40-mFc = molecular target: T6, hOX40-mFc (human); assay: as above
T6 construct: Dimeric; also called human OX40-mFc
T6 chain: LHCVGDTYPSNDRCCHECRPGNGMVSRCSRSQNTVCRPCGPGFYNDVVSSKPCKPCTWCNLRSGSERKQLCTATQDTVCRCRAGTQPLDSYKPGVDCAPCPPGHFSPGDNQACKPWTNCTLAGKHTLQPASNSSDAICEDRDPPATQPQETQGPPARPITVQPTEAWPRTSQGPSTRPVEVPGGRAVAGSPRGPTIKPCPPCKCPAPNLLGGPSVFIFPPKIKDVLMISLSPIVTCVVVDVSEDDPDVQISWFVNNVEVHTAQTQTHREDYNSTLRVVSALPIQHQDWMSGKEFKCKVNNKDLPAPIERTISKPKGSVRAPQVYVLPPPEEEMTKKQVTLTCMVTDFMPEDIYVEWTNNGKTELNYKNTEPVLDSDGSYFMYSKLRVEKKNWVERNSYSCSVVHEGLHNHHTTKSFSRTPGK
Protocol: as §3, §4

EC50 [1]: 0.71 nM | EC50 [2]: 0.12 nM | EC50 [3]: 0.11 nM | EC50 [4]: 0.22 nM | EC50 [5]: 0.129 nM | EC50 [6]: 0.157 nM | Kd (cOX40-mFc): 0.861 nM | Kd (hOX40-mFc): 0.214 nM
B1: FS20-22-49AA/FS30-10-16 (bispecific antibody, human IgG1, kappa, L234A L235A)
heavy: EVQLLESGGGLVQPGGSLRLSCAASGFTFSSYDMSWVRQAPGKGLEWVSDIDPTGSKTDYADSVKGRFTISRDNSKNTLYLQMNSLRAEDTAVYYCARDLLVYGFDYWGQGTLVTVSSASTKGPSVFPLAPSSKSTSGGTAALGCLVKDYFPEPVTVSWNSGALTSGVHTFPAVLQSSGLYSLSSVVTVPSSSLGTQTYICNVNHKPSNTKVDKKVEPKSCDKTHTCPPCPAPEAAGGPSVFLFPPKPKDTLMISRTPEVTCVVVDVSHEDPEVKFNWYVDGVEVHNAKTKPREEQYNSTYRVVSVLTVLHQDWLNGKEYKCKVSNKALPAPIEKTISKAKGQPREPQVYTLPPSRDEYWDQEVSLTCLVKGFYPSDIAVEWESNGDEQFAYKTTPPVLDSDGSFFLYSKLTVDQYRWNPADYFSCSVMHEALHNHYTQKSLSLSPG
light: EIVLTQSPGTLSLSPGERATLSCRASQSVSSSYLAWYQQKPGQAPRLLIYGASSRATGIPDRFSGSGSGTDFTLTISRLEPEDFAVYYCQQSYSYPVTFGQGTKVEIKRTVAAPSVFIFPPSDEQLKSGTASVVCLLNNFYPREAKVQWKVDNALQSGNSQESVTEQDSKDSTYSLSSTLTLSKADYEKHKVYACEVTHQGLSSPVTKSFNRGEC
notes: IgG1 with LALA; also called OX40/CD137 mAb^2; copies: 2 + 2
